Biological target: Cy-5-labelled H2A/H2B dimer, wild type (UniProt P02281)
Assay: fluorescence polarisation

Kd: 1000 nM
Substance: RNF168 RING domain (residues 1–189) (from UniProt Q8IYW5 1-189) (domain or fragment)
